# Source: patent US20230357429A1 (JANUX THERAPEUTICS, published 2023)
# Positions count from the first letter of the chain named. Numbers in names are those of the source. Where no end group is shown, it is not given here.
# B1: PC-33 (bispecific antibody)
# light: GGVDFCALYHWPICYQGGGGSGGLSGRSDAGSPLGLAGSGGSDIQLTQSPSSLSASVGDRVSITCKASQDVSIAVAWYQQKPGKAPKLLIYSASYRYTGVPDRFSGSGSGTDFTLTISSLQPEDFAVYYCQQHYITPLTFGAGTKVEIKRTVAAPSVFIFPPSDEQLKSGTASVVCLLNNFYPREAKVQWKVDNALQSGNSQESVTEQDSKDSTYSLSSTLTLSKADYEKHKVYACEVTHQGLSSPVTKSFNRGEC
# heavy: not shown
# notes: Masked polypeptide complex: anti-TROP2 F108A, anti-CD3 wt; CD3 mask …
# B2: PC-48 (bispecific antibody)
# light: GGVDFCALYHWPICYQGGGGSGGGSGGSGGASSGAGGSGGGSDIQLTQSPSSLSASVGDRVSITCKASQDVSIAVAWYQQKPGKAPKLLIYSASYRYTGVPDRFSGSGSGTDFTLTISSLQPEDFAVYYCQQHYITPLTFGAGTKVEIKRTVAAPSVFIFPPSDEQLKSGTASVVCLLNNFYPREAKVQWKVDNALQSGNSQESVTEQDSKDSTYSLSSTLTLSKADYEKHKVYACEVTHQGLSSPVTKSFNRGEC
# heavy: not shown
# notes: Masked polypeptide complex with non-cleavable linker: anti-TROP2 F108A, anti-CD3 wt
# B3: PC-49 (bispecific antibody)
# light: GGVDFCALYHWPICYQGGGSGGSGGISSGLLSGRSDAGSGGSDIQLTQSPSSLSASVGDRVSITCKASQDVSIAVAWYQQKPGKAPKLLIYSASYRYTGVPDRFSGSGSGTDFTLTISSLQPEDFAVYYCQQHYITPLTFGAGTKVEIKRTVAAPSVFIFPPSDEQLKSGTASVVCLLNNFYPREAKVQWKVDNALQSGNSQESVTEQDSKDSTYSLSSTLTLSKADYEKHKVYACEVTHQGLSSPVTKSFNRGEC
# heavy: not shown
# notes: Masked polypeptide complex with CL2 cleavable linker: anti-TROP2 F108A, anti-CD3 wt
# B4: PC-40 (bispecific antibody)
# light: B1 light
# heavy: EVQLVESGGGLVQPGGSLRLSCAASGSTFYTAVMGWVRQAPGKGLEWVAAIRWTALTTSYADSVKGRFTISRDGAKTTLYLQMNSLRPEDTAVYYCAARGTLGLFTTADSYDYWGQGTLVTVSSGGGGSGGGSGGYLCGPDADETLACYGGGGSGGGLSGRSDAGSPLGLAGSGGGSEVQLVESGGGLVQPGGSLKLSCAASGFTFNKYAMNWVRQASGKGLEWVGRIRSKYNNYATYYADSVKDRFTISRDDSKNTAYLQMNSLKTEDTAVYYCVRHGNFGNSYISYWAYWGQGTLVTVSSGGGGSGGGGSGGGGSQTVVTQEPSFSVSPGGTVTLTCRSSTGAVTSGNYANWVQQTPGQAPRGLIGGTKFLAPGVPDRFSGSILGNKAALTITGAQADDESDYYCVLWYSNRWVFGGGTKLTVLGGGGSQVQLQQSGSELKKPGASVKVSCKASGYTFTNYGMNWVKQAPGQGLKWMGWINTYTGEPTYTDDFKGRFAFSLDTSVSTAYLQISSLKADDTAVYFCARGGFGSSYWYADVWGQGSLVTVSSASTKGPSVFPLAPSSKSTSGGTAALGCLVKDYFPEPVTVSWNSGALTSGVHTFPAVLQSSGLYSLSSVVTVPSSSLGTQTYICNVNHKPSNTKVDKKVEPKSC
# notes: Masked polypeptide complex: anti-TROP2 F108A, anti-CD3 with P41S, A49G, N87S ; E227D; CD3 mask YLCGPDADETLACY
# Experiments:
# Cyno TROP2 Full length = target: T1, Cyno TROP2 Full length (cynomolgus monkey, UniProt P09758 31-323 (human entry)); assay: cell-based or functional assay
# T1 chain: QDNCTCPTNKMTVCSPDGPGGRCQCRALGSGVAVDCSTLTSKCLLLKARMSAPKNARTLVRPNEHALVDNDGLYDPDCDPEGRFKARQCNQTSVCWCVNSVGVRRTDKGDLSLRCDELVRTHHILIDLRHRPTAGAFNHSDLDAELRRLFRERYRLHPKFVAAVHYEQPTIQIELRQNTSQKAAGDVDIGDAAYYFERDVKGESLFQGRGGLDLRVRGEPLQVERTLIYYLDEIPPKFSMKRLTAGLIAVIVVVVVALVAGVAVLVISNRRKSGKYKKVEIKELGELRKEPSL
# Human TROP2 Full length = target: T2, Human TROP2 Full length (human, UniProt P09758 31-323); assay: cell-based or functional assay
# T2 sequence: T1 chain with V32M, N63S, V200I, V262M, S268T
# [1] = target: T3, Human TROP2 ECD (31-274 AA) (human, UniProt P09758 31-274, biotinylated); assay: ELISA; biotinylated TROP2 on neutravidin plates, PC titrated, HRP secondary
# T3 construct: also called biotinylated TROP2; TROP2-biotin
# T3 sequence: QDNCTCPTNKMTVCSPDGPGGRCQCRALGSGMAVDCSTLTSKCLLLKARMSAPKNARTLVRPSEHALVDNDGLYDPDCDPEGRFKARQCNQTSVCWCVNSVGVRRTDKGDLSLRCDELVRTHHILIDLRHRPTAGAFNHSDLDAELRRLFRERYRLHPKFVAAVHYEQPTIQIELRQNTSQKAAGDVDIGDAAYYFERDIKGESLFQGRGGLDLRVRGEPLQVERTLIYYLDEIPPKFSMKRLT
# TBD-1 wt = target: T4, TBD-1 wt; assay: competition ELISA, peptide vs Fab binding to captured biotin-TROP2
# T4 construct: Fab; the heavy chain entry is VH-CH1; also called wild-type anti-TROP2 Fab (hRS7); TROP2 Fab
# TBD-22 (HC D109A) [2] = target: T5, TBD-22 (HC D109A); assay: as above
# T5 construct: Fab; also called HC D109A mutant
# TBD-21 (HC F108A) = target: T6, TBD-21 (HC F108A); assay: as above
# T6 construct: Fab; also called HC F108A mutant
# TBD-11 (HC R98A) [3] = target: T7, TBD-11 (HC R98A); assay: as above
# T7 construct: Fab; also called HC R98A mutant
# TBD-17 (HC S104A) [4] = target: T8, TBD-17 (HC S104A); assay: as above
# T8 construct: Fab; also called HC S104A mutant
# TBD-11 (HC R98A) [5] = target: T9, TBD-11 (HC R98A); assay: competition ELISA, Fab on captured TROP2
# T9 construct: anti-TROP2 Fab, CDR3 HC alanine mutant
# TBD-6 (LC I93A) = target: T10, TBD-6 (LC I93A); assay: competition ELISA, Fab on captured TROP2
# T10 construct: anti-TROP2 Fab, CDR3 LC alanine mutant
# TBD-22 (HC D109A) [6] = target: T11, TBD-22 (HC D109A); assay: competition ELISA, Fab on captured TROP2
# T11 construct: anti-TROP2 Fab, CDR3 HC alanine mutant
# TBD-17 (HC S104A) [7] = target: T12, TBD-17 (HC S104A); assay: competition ELISA, Fab on captured TROP2
# T12 construct: anti-TROP2 Fab, CDR3 HC alanine mutant
# [8] = target: T13, TBD-1 wt (anti-TROP2 Fab, hRS7); assay: competition ELISA, Fab on captured TROP2
# T13 construct: non-mutated Fab
binder,measurement,setting,value
B1,CyTROP2 HEK293 EC50 (pM),Cyno TROP2 Full length,837 pM
same,H292 Cytotoxicity EC50 (pM),Human TROP2 Full length,13200 pM
same,EC50,[1],574 nM
B2,CyTROP2 HEK293 EC50 (pM),Cyno TROP2 Full length,69900 pM
same,H292 Cytotoxicity EC50 (pM),Human TROP2 Full length,> 100000 pM
same,HCT116 Cytotoxicity EC50 (pM),Human TROP2 Full length,> 100000 pM
same,EC50,[1],3960 nM
B3,CyTROP2 HEK293 EC50 (pM),Cyno TROP2 Full length,10600 pM
same,H292 Cytotoxicity EC50 (pM),Human TROP2 Full length,67400 pM
same,HCT116 Cytotoxicity EC50 (pM),Human TROP2 Full length,> 100000 pM
same,EC50,[1],1360 nM
B4,CyTROP2 HEK293 EC50 (pM),Cyno TROP2 Full length,10400 pM
same,H292 Cytotoxicity EC50 (pM),Human TROP2 Full length,53200 pM
same,HCT116 Cytotoxicity EC50 (pM),Human TROP2 Full length,> 100000 pM
same,EC50,[1],3510 nM
SVLFCVKNLYCWVT (cysteine pairing not given here; also: biotinylated (site not given here)) [Peptide-24],IC50,TBD-1 wt,2780 nM
"DNLICVKNLWCWIA (cysteine pairing not given here; also: biotinylated, site not given here) [Peptide-26]",IC50,TBD-1 wt,2230 nM
"FSLVCVRNLYCWNV (cysteine pairing not given here; also: biotinylated, site not given here) [Peptide-27]",IC50,TBD-1 wt,740 nM
"NYLLCVKNLYCWIV (cysteine pairing not given here; also: biotinylated, site not given here) [Peptide-28]",IC50,TBD-1 wt,1630 nM
"TSLICFRNVYCWNV (cysteine pairing not given here; also: biotinylated, site not given here) [Peptide-30]",IC50,TBD-1 wt,1910 nM
"YSLVCVKNLYCWNL (cysteine pairing not given here; also: biotinylated, site not given here) [Peptide-31]",IC50,TBD-1 wt,2940 nM
VDFCSFYRWPICET (cysteine pairing not given here; also: biotinylated (site not given here)) [Peptide-20],IC50,TBD-1 wt,1610 nM
"IDFCLIYNWPVCDT (cysteine pairing not given here; also: biotinylated, site not given here) [Peptide-63]",IC50,TBD-22 (HC D109A) [2],110 nM
same,IC50,TBD-21 (HC F108A),5890 nM
same,IC50,TBD-11 (HC R98A) [3],6810 nM
same,IC50,TBD-17 (HC S104A) [4],1400 nM
"PDFCAVYRWPICYQ (cysteine pairing not given here; also: biotinylated, site not given here) [Peptide-64]",IC50,TBD-22 (HC D109A) [2],120 nM
same,IC50,TBD-21 (HC F108A),1630 nM
same,IC50,TBD-11 (HC R98A) [3],1780 nM
same,IC50,TBD-17 (HC S104A) [4],1600 nM
VEFCKQWTWFGCMT (mask peptide for the TROP2 Fab) [Peptide-44],IC50,TBD-11 (HC R98A) [5],3550 nM
VDFCYQYGWPICSRVD (mask peptide for the TROP2 Fab) [Peptide-45],IC50,TBD-6 (LC I93A),14500 nM
same,IC50,TBD-22 (HC D109A) [6],2500 nM
same,IC50,TBD-17 (HC S104A) [7],39600 nM
same,IC50,[8],9290 nM
same,IC50,TBD-11 (HC R98A) [5],409000 nM
VDFCYQYGWPICSRLY (mask peptide for the TROP2 Fab) [Peptide-47],IC50,TBD-6 (LC I93A),7540 nM
same,IC50,TBD-22 (HC D109A) [6],2010 nM
same,IC50,TBD-17 (HC S104A) [7],27200 nM
same,IC50,[8],6480 nM
same,IC50,TBD-11 (HC R98A) [5],46200 nM
VDFCYQYAWPVCSTGD (mask peptide for the TROP2 Fab) [Peptide-52],IC50,TBD-6 (LC I93A),12300 nM
same,IC50,TBD-22 (HC D109A) [6],890 nM
same,IC50,TBD-17 (HC S104A) [7],15700 nM
same,IC50,[8],14300 nM
same,IC50,TBD-11 (HC R98A) [5],19100 nM
VEICKQWFYTVCLS (mask peptide for the TROP2 Fab) [Peptide-58],IC50,TBD-11 (HC R98A) [5],1130 nM
